Measurements published in patent US20260217847A1 (NANJING REGENECORE BIOTECH, published 2026).

How the values were obtained:
Test in all cases: peptide ELISA on streptavidin plate, 2 µg/mL 2H7-hFc, anti-hFc HRP
[1] = target: T1, TfR1 peptide D3-helix2-helix3 (human)
T1 construct: Synthetic peptide, captured on a streptavidin-coated plate; also called peptide No. 9
T1 peptide: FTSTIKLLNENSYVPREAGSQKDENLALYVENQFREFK
Experimental: (§1) The peptide-antibody binding was identified using a standard enzyme-linked immunosorbent assay (ELISA). The steps were as follows: [0244] (1) The wells of an ELISA plate were coated with 100 μL of 2 μg/mL SA (streptavidin) protein at 4° C. overnight. […] (2) The wells of the ELISA plate were washed with PBST buffer. After adding 200 μL of 2% BSA, the plate was blocked at 37° C. for 1 h. […] (3) The peptide protein was diluted to 2 μg/mL, and a negative control and a positive control (AVI-tagged TfR1 protein) were included. Each experiment contained duplicate controls. […] (4) The wells of the ELISA plate were washed multiple times with PBST buffer. Then, 100 μL of the diluted peptide protein solution from step (3) was added into wells in duplicate, and along with the negative control wells, incubated at 37° C. for 1 h. [0248] (5) The wells of the ELISA plate were washed multiple times with PBST buffer. […] [0249] (6) The wells of the ELISA plate were washed multiple times with PBST buffer. Then, 100 μL of 2× anti-hFc HRP secondary antibody was added, and the plate was incubated at 37° C. for 1 h. [0250] (7) The wells of the ELISA plate were washed multiple times with PBST buffer. After adding 100 μL of TMB chromogenic solution, the reaction was carried out in the dark at room temperature for 30 min. [0251] (8) 100 μL of stop solution (1 mol/L HCl) was added to terminate the reaction. OD450 was measured using a microplate reader, and the readings were recorded.

TfR1 peptide D3-helix2 = target: T2, TfR1 peptide D3-helix2 (human)
T2 construct: Synthetic peptide, captured on a streptavidin-coated plate; also called peptide No. 6
T2 peptide: FTSTIKLLNENSYV
Experimental: as §1

[2] = target: T3, TfR1 peptide D1-helix3-helix4 (human)
T3 construct: Synthetic peptide, captured on a streptavidin-coated plate; also called peptide No. 19
T3 peptide: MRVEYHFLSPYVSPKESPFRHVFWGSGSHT
Experimental: as §1

TfR1 peptide D2-loop1-K = target: T4, TfR1 peptide D2-loop1-K (human)
T4 construct: Synthetic peptide, captured on a streptavidin-coated plate; also called peptide No. 13
T4 peptide: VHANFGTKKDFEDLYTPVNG
Experimental: as §1

TfR1 peptide D1-helix4 = target: T5, TfR1 peptide D1-helix4 (human)
T5 construct: Synthetic peptide, captured on a streptavidin-coated plate; also called peptide No. 3
T5 peptide: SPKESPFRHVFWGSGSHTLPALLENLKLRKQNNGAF
Experimental: as §1

TfR1 peptide D1-helix5 = target: T6, TfR1 peptide D1-helix5 (human)
T6 construct: Synthetic peptide, captured on a streptavidin-coated plate; also called peptide No. 17
T6 peptide: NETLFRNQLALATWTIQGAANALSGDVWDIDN
Experimental: as §1

TfR1 peptide D1-helix1 = target: T7, TfR1 peptide D1-helix1 (human)
T7 construct: Synthetic peptide, captured on a streptavidin-coated plate; also called peptide No. 1
T7 peptide: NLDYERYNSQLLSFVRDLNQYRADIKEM
Experimental: as §1

[3] = target: T8, TfR1 peptide D1-helix2-helix3 (human)
T8 construct: Synthetic peptide, captured on a streptavidin-coated plate; also called peptide No. 4
T8 peptide: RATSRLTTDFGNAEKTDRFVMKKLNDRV
Experimental: as §1

[4] = target: T9, TfR1 peptide D3-helix1-helix2 (human)
T9 construct: Synthetic peptide, captured on a streptavidin-coated plate; also called peptide No. 8
T9 peptide: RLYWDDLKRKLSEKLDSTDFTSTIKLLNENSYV
Experimental: as §1

TfR1 peptide D3-helix3 = target: T10, TfR1 peptide D3-helix3 (human)
T10 construct: Synthetic peptide, captured on a streptavidin-coated plate; also called peptide No. 7
T10 peptide: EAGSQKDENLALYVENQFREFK
Experimental: as §1

TfR1 peptide D2-loop3-K = target: T11, TfR1 peptide D2-loop3-K (human)
T11 construct: Synthetic peptide, captured on a streptavidin-coated plate; also called peptide No. 14
T11 peptide: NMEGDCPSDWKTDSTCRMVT
Experimental: as §1

[5] = target: T12, TfR1 peptide D2-loop1-loop2 (human)
T12 construct: Synthetic peptide, captured on a streptavidin-coated plate; also called peptide No. 15
T12 peptide: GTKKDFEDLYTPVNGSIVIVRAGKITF
Experimental: as §1

TfR1 peptide D2-loop1 = target: T13, TfR1 peptide D2-loop1 (human)
T13 construct: Synthetic peptide, captured on a streptavidin-coated plate; also called peptide No. 12
T13 peptide: GTKKDFEDLY
Experimental: as §1

TfR1 peptide D3-helix1 = target: T14, TfR1 peptide D3-helix1 (human)
T14 construct: Synthetic peptide, captured on a streptavidin-coated plate; also called peptide No. 5
T14 peptide: RLYWDDLKRKLSEKLDSTD
Experimental: as §1

[6] = target: T15, TfR1 peptide D3-helix3-loop1 (human)
T15 construct: Synthetic peptide, captured on a streptavidin-coated plate; also called peptide No. 10
T15 peptide: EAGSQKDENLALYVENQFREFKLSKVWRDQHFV
Experimental: as §1

B1: anti-humanized TfR1 single-domain antibody-Fc fusion antibody 2H7-hFC1 (Fc fusion)
chain (part 1 of 2): ESGGGLVQPGESLRLSCVASGSIWSIYTMGWYRQAPGKQRDFVASITGDSTRTLESVKDRFIISRDNTKNTLYLQMNSLKPEDTAVYYCQAITSLGEYWGQGTQVTVSS
notes: Expressed in 293F cells, Protein A purified; labelled with pHrodo iFL Green in the internalization assays; also called VHH-hFc; not shown: human IgG1 Fc: hinge, CH2 and CH3 regions, from vector RJK-V4-hFC1; limits and junction (multiple cloning site) not stat
[1]
  OD450: 0.247
TfR1 peptide D3-helix2
  OD450: 0.17
[2]
  OD450: 0.508
  P/N: 4.7
TfR1 peptide D2-loop1-K
  OD450: 0.195
TfR1 peptide D1-helix4
  OD450: 1.49
  P/N: 9.5
TfR1 peptide D1-helix5
  OD450: 0.206
TfR1 peptide D1-helix1
  OD450: 0.21
[3]
  OD450: 0.19
[4]
  OD450: 0.274
TfR1 peptide D3-helix3
  OD450: 0.155
TfR1 peptide D2-loop3-K
  OD450: 0.217
[5]
  OD450: 1.12
  P/N: 6.4
TfR1 peptide D2-loop1
  OD450: 0.176
TfR1 peptide D3-helix1
  OD450: 0.147
[6]
  OD450: 0.229
